According to patent publication US20210386788A1, “ER TUNABLE PROTEIN REGULATION” (Obsidian Therapeutics, Inc., priority 2018, published 2021):

How the values were obtained:
Type in all cases: cell-based, human
primary T cells = test: CD19 CAR expression on lentivirus transduced primary T cells (flow cytometry with CD19-Fc); conditions: for CAR expression, % positive: day 7 of T cell expansion
Experimental: (§1) Primary T cells were activated with CD3/CD28 Dynabeads at 3:1 Bead: Cell ratio overnight, then transduced with OT-001792 lentivirus. On day 7 of the T cell expansion, CAR expression was measured by flow cytometry with CD19-Fc on cells treated overnight in the presence (34% positive) or absence (0.6% positive) of 1 μM Bazedoxifene. After the T cells had expanded for 10 days, they were mixed with CD19-expressing Nalm6 target cells at ratios of 10:1 and 2.5:1 total T cells:Nalm6 cells and cultured for 3 days.
Primary T cells were activated with CD3/CD28 Dynabeads at 3:1 Bead:Cell ratio overnight, then transduced with lentiviruses derived from the indicated constructs. On day 7 or day 9 (as indicated) of the T cell expansion, CAR expression was measured by flow cytometry with CD19-Fc on cells incubated for 24 hours with 1 μM Bazedoxifene or 1 μM Raloxifene or DMSO. […] At day 9 the basal percentage of CAR positive cells for the same constructs was even lower at approximately 20% i.e. in the absence of ligand and about 32-45% in the presence of either ligand. […] This was true at both day 7 and day 9.
Human donor T cells were thawed and activated overnight in the presence of CD3/CD28 Dynabeads at 3:1 bead:cell ratio, then transduced with lentivirus related to OT-002158, or OT-001786. Cells were expanded over the course of 10 days, with fresh media added to maintain cells at around 0.5×10^6 cells/mL. On day 9, an aliquot of cells was removed, and treated with 1 μM Bazedoxifene overnight or DMSO vehicle control, then stained with 10 μg/mL CD19-Fc. Histograms showing CAR expression from a Live Singlet cell gate were plotted.
Human donor T cells were thawed and activated overnight in the presence of CD3/CD28 Dynabeads at 3:1 bead:cell ratio, then transduced with lentivirus from the constructs. Cells were expanded over the course of 10 days, and fresh media was added to maintain cells around 0.5×10^6 cells/ml. On day 9, an aliquot of cells were removed, treated with 1 μM Bazedoxifene overnight, then stained with 10 μg/mL CD19-Fc. Histograms showing CAR expression from a Live Singlet cell gate were plotted. The data are shown in Table 19 and Table 20 where data are presented as % CAR positive cells, where SR indicates stabilization ration.
T cells were transduced with OT-00179, OT-002158, OT-001407 or empty vector and expanded as described herein, frozen on day 10. To confirm the expression and function of this large scale expansion for in vivo use, cells were thawed and incubated overnight in the presence of CD3/28 beads (1:1 bead:cell ratio) and with or without 1 μM Bazedoxifene. FACS staining with 1 μg/mL CD19-Fc was performed to measure the surface expression of CD19-CAR. The data are provided in Table 21 as the percentage CAR positive cells.

Nalm6 target cells [1] = test: Nalm6 target cell killing by CAR T cells (Incucyte)
Experimental: as §1
(§2) To measure Interferon gamma production, T cells transduced with the constructs OT-00179, OT-002158, OT-001407 or empty vector were thawed and co-cultured with Nalm6 target cells (stably expressing NucRed®) at different ratios of transduced T cells (herein referred to as the Effector) and Nalm 6 cells (herein referred to as the Target). Target cell viability was determined by measuring cellular fluorescence over time using the Incucyte instrument. Data presented in Table 22 are expressed as Nalm6 cell area at representative time points (0, 24, and 42 hour (hr)). The lower the numerical value of the Nalm6 area, the higher the cytotoxicity effected by the Effector cells.

Nalm6 target cells [2] = test: Interferon gamma in T cell/Nalm6 co-culture supernatants (MSD); conditions: co-culture supernatant at 42 hours
Experimental: as §2
Cell culture supernatants were collected from the T cell/Nalm6 cytotoxicity assay co-cultures at 42 hours. Interferon gamma was measured by MSD and is described in Table 23.

B1: OT-001792: CD8α leader; Linker (RS); ER (L384M, M421G, G521R, Y537S); Furin cleavage site; CD19 CAR; SEQ ID NO. 406 (protein)
chain: MALPVTALLLPLALLLHAARPRSSLALSLTADQMVSALLDAEPPILYSEYDPTRPFSEASMMGLLTNLADRELVHMINWAKRVPGFVDLTLHDQVHLLECAWMEILMIGLVWRSMEHPGKLLFAPNLLLDRNQGKCVEGGVEIFDMLLATSSRFRMMNLQGEEFVCLKSIILLNSGVYTFLSSTLKSLEEKDHIHRVLDKITDTLIHLMAKAGLTLQQQHQRLAQLLLILSHIRHMSNKRMEHLYSMKCKNVVPLSDLLLEMLDAHRLGTGAEDPRPSRKRRSLGDVGEIVMTQSPATLSLSPGERATLSCRASQDISKYLNWYQQKPGQAPRLLIYHTSRLHSGIPARFSGSGSGTDYTLTISSLQPEDFAVYFCQQGNTLPYTFGQGTKLEIKGGGGSGGGGSGGGGSQVQLQESGPGLVKPSETLSLTCTVSGVSLPDYGVSWIRQPPGKGLEWIGVIWGSETTYYSSSLKSRVTISKDNSKNQVSLKLSSVTAADTAVYYCAKHYYYGGSYAMDYWGQGTLVTVSSTTTPAPRPPTPAPTIASQPLSLRPEACRPAAGGAVHTRGLDFACDIYIWAPLAGTCGVLLLSLVITLYCKRGRKKLLYIFKQPFMRPVQTTQEEDGCSCRFPEEEEGGCELRVKFSRSADAPAYKQGQNQLYNELNLGRREEYDVLDKRRGRDPEMGGKPRRKNPQEGLYNELQKDKMAEAYSEIGMKGERRRGKGHDGLYQGLSTATKDTYDALHMQALPPR
- ligand dependent regulation of CAR expression (in words) (primary T cells; 1 μM Bazedoxifene or Raloxifene versus DMSO, day 7 or day 9): did not show any ligand dependent regulation of CAR expression
- % CAR positive cells, Bazedoxifene (primary T cells; Table 21, thawed cells, overnight with CD3/28 beads, 1 μM Bazedoxifene, 1 μg/mL CD19-Fc): 39.6%
- % CAR positive cells, Vehicle (primary T cells; Table 21, thawed cells, overnight with CD3/28 beads, without Bazedoxifene, 1 μg/mL CD19-Fc): 0.39%
- CAR expression, % positive (primary T cells; overnight in the absence of Bazedoxifene): 0.6%
- CAR expression, % positive (primary T cells; overnight in the presence of 1 μM Bazedoxifene): 34%
- Nalm 6 area, total target area (Nalm6 target cells [1]; 0 hr, Effector:Target 0.3:1, + 1 μM Bazedoxifene): 57617.98
- Nalm 6 area, total target area (Nalm6 target cells [1]; 0 hr, Effector:Target 0.3:1, no ligand): 71711.59
- Nalm 6 area, total target area (Nalm6 target cells [1]; 0 hr, Effector:Target 1:1, + 1 μM Bazedoxifene): 67768.82
- Nalm 6 area, total target area (Nalm6 target cells [1]; 0 hr, Effector:Target 1:1, no ligand): 62673.31
- Nalm 6 area, total target area (Nalm6 target cells [1]; 0 hr, Effector:Target 3:1, + 1 μM Bazedoxifene): 54788.54
- Nalm 6 area, total target area (Nalm6 target cells [1]; 0 hr, Effector:Target 3:1, no ligand): 60708.63
- Nalm 6 area, total target area (Nalm6 target cells [1]; 0 hr, Effector:Target 10:1, + 1 μM Bazedoxifene): 55572.92
- Nalm 6 area, total target area (Nalm6 target cells [1]; 0 hr, Effector:Target 10:1, no ligand): 57172.20
- Nalm 6 area, total target area (Nalm6 target cells [1]; 24 hr, Effector:Target 0.3:1, + 1 μM Bazedoxifene): 94217.60
- Nalm 6 area, total target area (Nalm6 target cells [1]; 24 hr, Effector:Target 0.3:1, no ligand): 123175.80
- Nalm 6 area, total target area (Nalm6 target cells [1]; 24 hr, Effector:Target 1:1, + 1 μM Bazedoxifene): 103535.70
- Nalm 6 area, total target area (Nalm6 target cells [1]; 24 hr, Effector:Target 1:1, no ligand): 104433.20
- Nalm 6 area, total target area (Nalm6 target cells [1]; 24 hr, Effector:Target 3:1, + 1 μM Bazedoxifene): 67794.87
- Nalm 6 area, total target area (Nalm6 target cells [1]; 24 hr, Effector:Target 3:1, no ligand): 105474.34
- Nalm 6 area, total target area (Nalm6 target cells [1]; 24 hr, Effector:Target 10:1, + 1 μM Bazedoxifene): 40606.37
- Nalm 6 area, total target area (Nalm6 target cells [1]; 24 hr, Effector:Target 10:1, no ligand): 93991.37
- Nalm 6 area, total target area (Nalm6 target cells [1]; 42 hr, Effector:Target 0.3:1, + 1 μM Bazedoxifene): 143903.95
- Nalm 6 area, total target area (Nalm6 target cells [1]; 42 hr, Effector:Target 0.3:1, no ligand): 197082.75
- Nalm 6 area, total target area (Nalm6 target cells [1]; 42 hr, Effector:Target 1:1, + 1 μM Bazedoxifene): 133539.50
- Nalm 6 area, total target area (Nalm6 target cells [1]; 42 hr, Effector:Target 1:1, no ligand): 171919.20
- Nalm 6 area, total target area (Nalm6 target cells [1]; 42 hr, Effector:Target 3:1, + 1 μM Bazedoxifene): 58548.97
- Nalm 6 area, total target area (Nalm6 target cells [1]; 42 hr, Effector:Target 3:1, no ligand): 180465.55
- Nalm 6 area, total target area (Nalm6 target cells [1]; 42 hr, Effector:Target 10:1, + 1 μM Bazedoxifene): 25302.71
- Nalm 6 area, total target area (Nalm6 target cells [1]; 42 hr, Effector:Target 10:1, no ligand): 156073.75
- CD19-CAR mediated target cell killing (Nalm6 target cells [1]; T cells:Nalm6 10:1 and 2.5:1, 3 days, with or without 1 μM Bazedoxifene): observed specifically in the presence of 1 μM Bazedoxifene
- IFN gamma levels, 1 μM Bazedoxifene (Nalm6 target cells [2]; 1 μM Bazedoxifene): 7079.60 pg/mL
- IFN gamma levels, Vehicle (Nalm6 target cells [2]; vehicle): 91.09 pg/mL
